# From patent publication US20190030126A1, “Inhibitors of the Interaction BCL-2 L10 / IP3 Receptors” (Universite Claude Bernard - Lyon 1, priority 2016, published 2019)
# Experiments:
# [1] = biological target: T1, Nrh/IP3R1 complex (Flag-Nrh / HA-hBD IP3R1) (Homo sapiens, UniProt Q9HD36); assay: Co-immunoprecipitation of Flag-Nrh and HA-hBD IP3R1 in HeLa cells pre-incubated with dTAT peptides; format: cell-based; conditions: 10 μM peptide, pre-incubated 1 h at 37° C., no external agent
# T1 construct: expressed in transfected cells; host or cells: HeLa
# T1 sequence (Q9HD36 11-204): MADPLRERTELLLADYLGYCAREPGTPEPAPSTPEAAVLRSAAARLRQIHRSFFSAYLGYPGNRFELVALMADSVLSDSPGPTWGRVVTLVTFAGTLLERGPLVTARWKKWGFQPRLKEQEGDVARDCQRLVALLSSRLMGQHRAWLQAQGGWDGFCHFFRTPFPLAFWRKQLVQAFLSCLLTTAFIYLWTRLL
# Protocol: (B) The interaction between Flag-Nrh and HA-hBD IP3R1 was assessed by co-immunoprecipitation in HeLa cells transfected with a plasmid coding for Flag-Nrh or HA-hBD IP3R1, pre-incubated with 10 μM control peptide (dTAT 1-23 C20A Y16F) or 10 μM peptide (dTAT 1-23 C20A). In this experiment, dTAT-Nrh 1-23 C20A but not dTAT 1-23 C20A Y16F disrupts the Nrh/IP3R1 complex.
# The interaction between Flag-Nrh (Bcl-2 L10) and HA-hBD IP3R1 was assessed by co-immunoprecipitation in HeLa cells transfected with a plasmid coding for Flag-Nrh or HA-hBD IP3R1, pre-incubated for 1 h at 37° C. in Ca^2+-free Balanced Salt Solution (121 mM NaCl, 5.4 mM KCl, 0.8 mM MgCl2, 6 mM NaHCO3, 5.5 mM D-glucose, 25 mM HEPES, pH 7.3) with vehicle (peptide solvant [H2O-TFA 0.1%]), and: • 10 μM of control peptide (dTAT 1-23 Y16F C20A) or • 10 μM of wild-type peptide (dTAT 1-23 C20A).
# Cells were washed twice and incubated for another 1 h at 37° C. before harvest.
# [2] = tested on: MDA-MB-231 cancer cells; assay: MDA-MB-231 tumour growth in the mammary fat pad of SCID mice; format: in vivo; conditions: 10 mg/kg, peritumoral injection, once every three days, monotherapy, versus vehicle (PBS); P<0.01
# Protocol: (A) MDA-MB-231 cells have been injected into the mammary fat pad of SCID mice. When the tumors reached a mean volume of about 90 mm^3, mice were treated with dTAT 1-23 C20A peptide at 10 mg/kg, peritumoral injection, once every three days, or vehicle alone (PBS) with the same injection periodicity.
# SCID Mice have been used as tumor model for testing the effects of administration of the peptides according to the invention
# MDA-MB-231 cancer cells have been injected into the mammary fat pad of SCID mice.
# [3] = tested on: HeLa cells; assay: Test of apoptosis (SR-FLICA, caspase activity) in transfected HeLa cells treated with thapsigargin; format: cell-based, human; conditions: HeLa cells transfected with peptide construct (fused to Cb5), 10 μM thapsigargin for 24 h
# Protocol: (B) Test of apoptosis (SR-FLICA) in response to 10 μM of thapsigargin for 24 h in HeLa cells transfected with the empty vector pCS2+ or the constructs coding for Nrh-WT (wild-type), Nrh-ActA, Nrh-cb5, Nrh-dTM or Nrh-dBH4 (N=3). ***, p<0.001;**, p<0.01; n.s. p>0.1 (Student t-test).
# (C) Test of apoptosis (SR-FLICA) in response to 10 μM of thapsigargin for 24 h in HeLa cells transfected with the empty vector pCS2+ or the constructs coding for the peptides Nrh 1-23, Nrh 1-23 Y16F or Nrh 1-23 C20A (N=3). ***, p<0.001;**, p<0.01; n.s. p>0.1 (Student t-test).
# The effects of these various proteins were observed after transfection of HeLa cells by the empty vector pCS2+ or with the constructs coding for Nrh, Nrh-ActA, Nrh-cb5, dTM or dBH4.
# [4] = biological target: T2, interaction of Bcl-2 L10/Nrh with the BD domain of the receptor IP3R1 (Homo sapiens, UniProt Q9HD36); assay: Immunoprecipitation (anti-HA) of the Flag-Nrh / HA-hBD interaction in HeLa cells co-transfected with peptide plasmids; format: cell-based; conditions: peptides Flag-tagged, fused to cytochrome b5 domain, plasmid ratio 1:2
# T2 construct: expressed in transfected cells; host or cells: HeLa
# T2 sequence (Q9HD36 11-204): T1 sequence (Q9HD36 11-204)
# Description: (B) Quantification of the Nrh-IP3R1 interaction by immunoprecipitation experiments with anti-HA antibodies in HeLa cells transfected with plasmids coding for Flag-Nrh, HA-hBD and the different point mutants of the peptides Nrh 1-23 Flag-tagged with a ratio of 1:2 (N=3).
# FIG. 5B presents the ability of these different peptides to inhibit the interaction of Bcl-2 L10/Nrh with the BD domain of the receptor IP3R1. This interaction is quantified by the immunoprecipitation technique, the BD domain being tagged with an HA epitope and the protein Bcl-2 L10/Nrh being tagged with a Flag epitope.
# HeLa cells are transfected with plasmids coding for Flag-Nrh, HA-hBD and the different point mutants of the peptide Nrh 1-23 Flag-tagged with a ratio of 1:2, and immunoprecipitation is carried out with an anti-HA antibody.
# [5] = biological target: T3, Flag-Nrh (Bcl-2 L10) (Homo sapiens, UniProt Q9HD36); assay: Streptavidin pull-down with biotin-labelled peptide, HeLa extracts expressing Flag-Nrh; format: binding; conditions: 5 μg of biotin-labelled peptide
# T3 construct: expressed in transfected cells; host or cells: HeLa (cellular extracts)
# T3 sequence (Q9HD36 1-204): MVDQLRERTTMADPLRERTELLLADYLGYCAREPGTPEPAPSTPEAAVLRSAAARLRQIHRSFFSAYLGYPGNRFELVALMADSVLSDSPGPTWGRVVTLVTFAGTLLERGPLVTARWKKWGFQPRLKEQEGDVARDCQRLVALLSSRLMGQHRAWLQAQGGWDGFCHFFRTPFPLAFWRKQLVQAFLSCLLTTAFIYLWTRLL
# Protocol: (§1) (A) Streptavidin pull-down in HeLa cells transfected with either empty vector pCS2+, Flag-Nrh, HA-hBD or HA-BECN1, which cellular extracts were incubated or not with 5 μg of biotin-labelled Nrh 1-23 peptide.
# (§2) (B) Streptavidin pull-down in HeLa cells transfected with either empty vector pCS2+, Flag-Nrh, or Flag-Nrz, which cellular extracts were incubated with 5 μg of biotin-labelled Nrh 1-23 peptide or Nrh 1-23 R6A Y16F double mutant peptide.
# (§3) (A) HeLa cells were transfected with either empty vector pCS2+, Flag-Nrh, HA-hBD or HA-Beclin1 (referred to as HA-BECN1), a protein well known for its binding capacities to Nrh, then cellular extracts were incubated or not with 5 μg of biotin-labelled Nrh 1-23 wild-type peptide. Streptavidin is used for pulling-down the complexes comprising biotin-labelled Nrh peptide.
# (§4) Streptavidin is used for pulling-down the complexes comprising biotin-labelled Nrh peptide.
# [6] = biological target: T4, HA-hBD (IP3 binding domain of IP3R1) (Homo sapiens, UniProt Q14643); assay: Streptavidin pull-down with biotin-labelled peptide, HeLa extracts expressing HA-hBD; conditions: 5 μg of biotin-labelled peptide
# T4 construct: extending from residue 226 to residue 565 in the human protein; expressed in transfected cells; host or cells: HeLa (cellular extracts)
# T4 sequence (Q14643 226-565): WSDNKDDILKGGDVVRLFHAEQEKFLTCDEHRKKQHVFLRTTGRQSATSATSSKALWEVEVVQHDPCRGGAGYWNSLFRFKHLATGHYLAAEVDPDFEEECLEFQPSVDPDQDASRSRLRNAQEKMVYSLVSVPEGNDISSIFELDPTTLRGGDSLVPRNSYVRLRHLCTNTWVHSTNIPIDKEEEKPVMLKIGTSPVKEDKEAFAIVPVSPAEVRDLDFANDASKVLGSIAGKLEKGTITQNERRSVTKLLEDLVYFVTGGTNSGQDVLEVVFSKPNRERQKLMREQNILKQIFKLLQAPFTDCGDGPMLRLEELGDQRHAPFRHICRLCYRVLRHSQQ
# Protocol: as §1, §3
# [7] = tested on: Flag-Nrz; assay: Streptavidin pull-down with biotin-labelled peptide, HeLa extracts expressing Flag-Nrz; format: binding, zebrafish; conditions: 5 μg of biotin-labelled peptide
# Protocol: as §2, §4
# [8] = biological target: T5, Nrh homodimer (Flag-Nrh / HA-Nrh) (Homo sapiens, UniProt Q9HD36); assay: Co-immunoprecipitation (anti-HA) of Flag-Nrh and HA-Nrh: Nrh homodimerisation; format: binding; conditions: incubation with the peptide
# T5 construct: the ability of the whole protein Nrh (Bcl-2 L10) to dimerise
# T5 sequence (Q9HD36 11-204): T1 sequence (Q9HD36 11-204)
# Description: Quantification of the interaction between Flag-Nrh and HA-Nrh using co-immunoprecipitation with anti-HA antibody.
# FIG. 7 illustrates the quantification of the interaction between Flag-Nrh and HA-Nrh using co-immunoprecipitation with anti-HA antibody. Formation of a Nrh homodimer is observed.
Sequence,disruption of the Nrh/IP3R1 complex (co-immunoprecipitation) [1],effect on tumoral growth (tumor volume) [2],potentiation of thapsigargin effect on caspase activity [3],ability to inhibit the Nrh/IP3R1 BD interaction (Flag-Nrh band on Western blot after anti-HA immunoprecipitation) [4],interaction with Nrh (pull-down) [5],interaction with HA-hBD (pull-down) [6],interaction with Nrz (pull-down) [7],prevention of Nrh homodimerisation [8]
CKRKKRRQRRRGGSGGADPLRERTELLLADYLGYAARE [dTAT 1-23 C20A],disrupt the Nrh/IP3R1 complex,significant effect,,,,,,
MADPLRERTELLLADYLGYCARE [Nrh 1-23],,,virtually doubled,dissociate the Nrh/IP3R1 interaction,only able to interact with Nrh,not with HA-hBD,not Nrz,can be prevented
